The results in this text go back to article PMC10770396, “Dimerization of the 4Ig isoform of B7-H3 in tumor cells mediates enhanced proliferation and tumorigenic signaling” (Communications Biology, 2024).

Series [1] deals with the molecule itself. In words: SEC; analytical SEC, Superdex 200 10/300, PBS + 0.1 M NaCl + 0.05% NaN3, flow 0.5 ml/min, protein at 100 μg/mL; apparent molecular weight from a calibration curve; monomer to dimer. A general note: SEC sorts molecules by how far they enter the pores of the column.
Series [2] addresses T1, 4Ig-B7-H3-mEGFP (human), Q5ZPR3.
T1 chain: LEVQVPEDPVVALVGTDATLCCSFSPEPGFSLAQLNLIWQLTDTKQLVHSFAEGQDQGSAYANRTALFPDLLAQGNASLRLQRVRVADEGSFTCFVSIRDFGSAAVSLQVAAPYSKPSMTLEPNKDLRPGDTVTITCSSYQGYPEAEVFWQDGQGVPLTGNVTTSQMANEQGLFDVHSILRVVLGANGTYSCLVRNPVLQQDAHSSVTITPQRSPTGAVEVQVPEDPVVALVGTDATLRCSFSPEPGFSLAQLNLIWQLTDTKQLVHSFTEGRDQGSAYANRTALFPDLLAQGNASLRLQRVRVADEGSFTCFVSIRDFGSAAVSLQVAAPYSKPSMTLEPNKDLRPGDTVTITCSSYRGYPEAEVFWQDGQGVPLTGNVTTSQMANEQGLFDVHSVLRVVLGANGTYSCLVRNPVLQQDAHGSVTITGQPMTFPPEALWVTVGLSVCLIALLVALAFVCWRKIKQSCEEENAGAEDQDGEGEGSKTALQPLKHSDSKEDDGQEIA
The series can be described thus: FRET or BRET; homo-FRET fluorescence lifetime imaging (FRET-FLIM, TCSPC) of mEGFP fusions in fixed, transiently transfected HeLa CD276-/- KO cells; bi-exponential fit. The note with it: remark: other sources report otherwise. (In general: In BRET a luciferase serves as donor, and the signal depends on an acceptor being close.)

B1: human 4Ig-B7-H3 extracellular domain (amino acids: Gly27 – Thr461), recombinant (domain or fragment, UniProt Q5ZPR3 27-461, looked up)
chain: GALEVQVPEDPVVALVGTDATLCCSFSPEPGFSLAQLNLIWQLTDTKQLVHSFAEGQDQGSAYANRTALFPDLLAQGNASLRLQRVRVADEGSFTCFVSIRDFGSAAVSLQVAAPYSKPSMTLEPNKDLRPGDTVTITCSSYQGYPEAEVFWQDGQGVPLTGNVTTSQMANEQGLFDVHSILRVVLGANGTYSCLVRNPVLQQDAHSSVTITPQRSPTGAVEVQVPEDPVVALVGTDATLRCSFSPEPGFSLAQLNLIWQLTDTKQLVHSFTEGRDQGSAYANRTALFPDLLAQGNASLRLQRVRVADEGSFTCFVSIRDFGSAAVSLQVAAPYSKPSMTLEPNKDLRPGDTVTITCSSYRGYPEAEVFWQDGQGVPLTGNVTTSQMANEQGLFDVHSVLRVVLGANGTYSCLVRNPVLQQDAHGSVTITGQPMT
notes: B7-H3 (CD276), human, 4Ig isoform, extracellular domain, residues Gly27 – Thr461; commercial proteins of this kind often carry a C-terminal His tag (surmise); also called CD276; source: bought: R&D Systems (functionally active recombinant protein)
As for B1, the “stoichiometry N” value in series [1] is 2.

B2: 4Ig-B7-H3-mEGFP, Q5ZPR3 29-534 (natural protein)
chain: T1 chain
Turning to B2, in series [2], the mEGFP fluorescence lifetime, bi-exponential fit, first fraction is 2.57 ns and the mEGFP fluorescence lifetime, bi-exponential fit, second fraction was found to be 1.33 ns.

B3: murine 2Ig-B7-H3 extracellular domain (amino acids: Val29 – Phe244), recombinant (domain or fragment, UniProt Q8VE98 29-244, looked up)
chain: VEVQVSEDPVVALVDTDATLRCSFSPEPGFSLAQLNLIWQLTDTKQLVHSFTEGRDQGSAYSNRTALFPDLLVQGNASLRLQRVRVTDEGSYTCFVSIQDFDSAAVSLQVAAPYSKPSMTLEPNKDLRPGNMVTITCSSYQGYPEAEVFWKDGQGVPLTGNVTTSQMANERGLFDVHSVLRVVLGANGTYSCLVRNPVLQQDAHGSVTITGQPLTF
notes: B7-H3 (CD276), murine, 2Ig isoform, extracellular domain, residues Val29 – Phe244; also called murine B7-H3; source: bought: R&D Systems (functionally active recombinant protein)
Turning to B3, the “stoichiometry N” value in series [1] amounted to 2.

One may read the stoichiometry N as a count of units in the complex or per binding partner.
